Source: article PMC9135631 (2022)

B1: soluble FLRT3 extracellular domain fused to the constant fraction of human IgG (FLRT3^ECD-Fc) (Fc fusion)
chain: KSCPSVCRCDAGFIYCNDRFLTSIPTGIPEDATTLYLQNNQINNAGIPSDLKNLLKVERIYLYHNSLDEFPTNLPKYVKELHLQENNIRTITYDSLSKIPYLEELHLDDNSVSAVSIEEGAFRDSNYLRLLFLSRNHLSTIPWGLPRTIEELRLDDNRISTISSPSLQGLTSLKRLVLDGNLLNNHGLGDKVFFNLVNLTELSLVRNSLTAAPVNLPGTNLRKLYLQDNHINRVPPNAFSYLRQLYRLDMSNNNLSNLPQGIFDDLDNITQLILRNNPWYCGCKMKWVRDWLQSLPVKVNVRGLMCQAPEKVRGMAIKDLNAELFDCKDSGIVSTIQITTAIPNTVYPAQGQWPAPVTKQPDIKNPKLTKDHQTTGSPSRKTITITVKSVTSDTIHISWKLALPMTALRLSWLKLGHSPAFGSITETIVTGERSEYLVTALEPDSPYKVCMVPMETSNLYLFDETPVCIETETAPLRMYNPTTTLNREQEKEPYKNPNLP
modifications: N-terminal HA/Flag epitopes left out; isoform not printed (Q9HAR2-2 chosen over Q9HAR2-4, both fit the variant numbering); signal peptide removed and autoproteolysis at the GPS expected in the cell
B2: Latrophilin-3 wild type (Lphn3^HA,Flag) (receptor)
chain: MWPSQLLIFMMLLAPIIHAFSRAPIPMAVVRRELSCESYPIELRCPGTDVIMIESANYGRTDDKICDSDPAQMENIRCYLPDAYKIMSQRCNNRTQCAVVAGPDVFPDPCPGTYKYLEVQYECVPYKVEQKVFLCPGLLKGVYQSEHLFESDHQSGAWCKDPLQASDKIYYMPWTPYRTDTLTEYSSKDDFIAGRPTTTYKLPHRVDGTGFVVYDGALFFNKERTRNIVKFDLRTRIKSGEAIIANANYHDTSPYRWGGKSDIDLAVDENGLWVIYATEQNNGKIVISQLNPYTLRIEGTWDTAYDKRSASNAFMICGILYVVKSVYEDDDNEATGNKIDYIYNTDQSKDSLVDVPFPNSYQYIAAVDYNPRDNLLYVWNNYHVVKYSLDFGPLDSRSGQAHHGQVSYISPPIHLDSELERPSVKDISTTGPLGMGSTTTSTTLRTTTLSPGRSTTPSVSGRRNRSTSTPSPAVEVLDDMTTHLPSASSQIPALEESCEAVEAREIMWFKTRQGQIAKQPCPAGTIGVSTYLCLAPDGIWDPQGPDLSNCSSPWVNHITQKLKSGETAANIARELAEQTRNHLNAGDITYSVRAMDQLVGLLDVQLRNLTPGGKDSAARSLNKLQKRERSCRAYVQAMVETVNNLLQPQALNAWRDLTTSDQLRAATMLLHTVEESAFVLADNLLKTDIVRENTDNIKLEVARLSTEGNLEDLKFPENMGHGSTIQLSANTLKQNGRNGEIRVAFVLYNNLGPYLSTENASMKLGTEALSTNHSVIVNSPVITAAINKEFSNKVYLADPVVFTVKHIKQSEENFNPNCSFWSYSKRTMTGYWSTQGCRLLTTNKTHTTCSCNHLTNFAVLMAHVEVKHSDAVHDLLLDVITWVGILLSLVCLLICIFTFCFFRGLQSDRNTIHKNLCISLFVAELLFLIGINRTDQPIACAVFAALLHFFFLAAFTWMFLEGVQLYIMLVEVFESEHSRRKYFYLVGYGMPALIVAVSAAVDYRSYGTDKVCWLRLDTYFIWSFIGPATLIIMLNVIFLGIALYKMFHHTAILKPESGCLDNINYEDNRPFIKSWVIGAIALLCLLGLTWAFGLMYINESTVIMAYLFTIFNSLQGMFIFIFHCVLQKKVRKEYGKCLRTHCCSGKSTESSIGSGKTSGSRTPGRYSTGSQSRIRRMWNDTVRKQSESSFITGDINSSASLNREPYRETSMGVKLNIAYQIGASEQCQGYKCHGYSTTEW

What was measured:
[1] = target: B2
[2] = target: 8xHis-tagged Teneurin-2 extracellular domain (Ten2^ECD-His) (UniProt Q9NT68 401-2774, N-terminal HA/Flag epitopes left out; isoform not printed (Q9HAR2-2 chosen over Q9HAR2-4, both fit the variant numbering); signal peptide removed and autoproteolysis at the GPS expected in the cell)

Row | Binder | Kd [1] [nM] | Kd [2] [nM]
1 | B1 | 0.988 | –
2 | B2 | – | 0.69
